The chains are these.
B7: anti-KLB monoclonal antibody 2C12 (antibody, human IgG1, V domains shown)
VH: EVQLQQSGPGLVKPSQSLSLTCSVTGYSITSGYYWTWIRQFPGNKLEWMGYIKYDGGNYYNPSLRNRISITRDTSKNHFFLKFYSVTAEDTATYFCARGDYYASPYGAMDSWGQGTSVTVSS
VL: DIVMTQSPSSLSASLGDTITITCHASQDIDVWLSWYQQKPGNVPQLLISKSSILHTGVPSRFSGGGSGTGFTLTISSLQPEDIATYYCQQGLSYPFTFGSGTKLKIK
notes: hybridoma mouse IgG in the first screen; also called clone 2C12; 2C12 (human IgG1)

Experiment [1] addresses T1, recombinant human KLB (soluble protein) (human, UniProt Q86Z14 53-997, limits assumed).
T1 construct: also called monomeric human KLB; recombinant KLB
Put plainly: SPR (BIAcore T200), antibody captured on Protein A chip, monomeric human KLB as analyte, 25 C, 1:1 Langmuir fit. The protocol:
(§1) For binding affinity determination of tcIgG and traditional IgG, surface plasmon resonance (SPR) measurements using a BIAcore T200 and ProteinA sensor chip was used and dilutions of monomeric human KLB as analyte were injected over the immobilized tcIgG or traditional IgG at 25° C. to determine monovalent affinities. Association rates (kon) and dissociation rates (koff) were calculated using a simple one-to-one Langmuir binding model. The equilibrium dissociation constant (Kd) was calculated as the ratio koff/kon.
(In general: Surface plasmon resonance follows binding to a sensor surface in real time, without labels.)

Experiment [2] addresses T1, recombinant human KLB (soluble protein). Description: SPR, Biacore T200, antibody captured on Protein A chip, monomeric human KLB as analyte, 25 C; mean ± range of two experiments. The protocol:
as §1

The target in experiment [3] is T2, human KLB expressed on cells (human, UniProt Q86Z14 53-1044).
T2 construct: also called hKLB; Klotho-beta
Put plainly: flow cytometry, HEK293T cells transiently expressing the construct, antibody at 2 µg/ml, anti-human IgG-Alexa 488. A general note: Flow cytometry measures light scatter and fluorescence of single cells or particles in a stream.

Experiment [4] concerns the target T3, Rat KLB (limits assumed).
T3 construct: also called rat Klotho-beta
T3 single chain: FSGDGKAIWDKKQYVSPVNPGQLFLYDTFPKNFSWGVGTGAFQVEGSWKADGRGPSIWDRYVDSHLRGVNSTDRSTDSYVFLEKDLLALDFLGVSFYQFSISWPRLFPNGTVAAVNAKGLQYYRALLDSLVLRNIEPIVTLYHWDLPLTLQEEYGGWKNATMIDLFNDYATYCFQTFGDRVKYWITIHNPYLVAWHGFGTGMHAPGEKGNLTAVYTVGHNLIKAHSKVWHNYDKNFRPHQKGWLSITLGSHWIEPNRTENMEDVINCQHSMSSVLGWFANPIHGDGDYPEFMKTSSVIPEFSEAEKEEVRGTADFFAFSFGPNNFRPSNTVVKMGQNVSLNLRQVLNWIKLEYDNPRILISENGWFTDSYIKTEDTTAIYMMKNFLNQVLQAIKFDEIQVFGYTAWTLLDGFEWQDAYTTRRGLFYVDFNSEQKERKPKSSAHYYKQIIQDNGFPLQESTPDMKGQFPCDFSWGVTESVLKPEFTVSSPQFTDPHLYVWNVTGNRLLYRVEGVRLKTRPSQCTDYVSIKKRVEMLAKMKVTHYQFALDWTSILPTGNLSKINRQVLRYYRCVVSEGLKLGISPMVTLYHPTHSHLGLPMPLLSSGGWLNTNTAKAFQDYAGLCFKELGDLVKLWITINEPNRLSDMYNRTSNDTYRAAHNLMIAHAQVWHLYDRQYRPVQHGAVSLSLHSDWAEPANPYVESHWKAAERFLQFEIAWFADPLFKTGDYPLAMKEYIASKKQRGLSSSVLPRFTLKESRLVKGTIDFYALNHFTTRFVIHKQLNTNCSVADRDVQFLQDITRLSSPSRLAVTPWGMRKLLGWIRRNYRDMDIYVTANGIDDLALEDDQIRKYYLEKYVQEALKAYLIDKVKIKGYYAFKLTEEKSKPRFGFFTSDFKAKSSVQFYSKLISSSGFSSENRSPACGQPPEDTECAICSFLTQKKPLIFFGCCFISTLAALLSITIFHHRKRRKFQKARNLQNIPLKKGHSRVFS
Put plainly: flow cytometry, HEK293T cells transiently expressing the construct, anti-human IgG-Alexa 488.

Experiment [5] has as its target human KLB/FGFR1c receptor complex on cells (human, UniProt Q86Z14 53-1044; P11362 22-822). Description: cell-based or functional assay.
The target in experiment [6] is T3, Rat KLB. Put plainly: FACS, HEK293T cells expressing human/rat KLB chimeric proteins; summary table of + and - by epitope bin.
Experiment [7] concerns the target T1, recombinant human KLB (soluble protein). Put plainly: SPR, Biacore T200, antibody captured on Protein A chip, monomeric human KLB as analyte, 25 C; mean of two experiments. The protocol: as §1
The target in experiment [8] is B7. Description: biolayer interferometry (Octet), anti-human Fc sensor -> human Ab1 -> no hKLB -> mouse Ab2. The protocol:
Epitope binning experiments (FIGS. 11A-11B) were performed by BioLayer Inferometry in 8-channel or 16-channel mode using anti-mouse Fc or anti-human Fc capture biosensors on the Octet Red384 system (Pall Life Sciences, Menlo Park, Calif.). […] Epitope binning with anti-human Fc capture biosensors was done similarly.
In general terms: In BLI a coated tip is dipped into the sample, and binding shifts an interference pattern.

Experiment [9] addresses T2, human KLB expressed on cells. Put plainly: FACS, HEK293T cells expressing human/rat KLB chimeric proteins; summary table of + and - by epitope bin.
The target of experiment [10] is T1, recombinant human KLB (soluble protein). Description: binding affinity test of Example 7 (FIG. 21); method not restated, presumably the Biacore assay of Example 6; text of Example 7 (FIG. 21); Table 9 prints 2.06 ± 0.11 nM. As to the method:
as §1

B1: anti-KLB antibody clone 4H7 in tri-chain IgG format (antibody)
chain 1: DIVLTQSPASLAVSLGQRATISCKASQSVDYDGDSYMNWYQQKPGQPPKLLIYAASNLKSGIPARFSGSGSGTDFTLNIHPVEEEDAATYYCQQSNEDPRTFGGGTRLEIKRGGGGSGGGGSGGGGSGGGGSQVQLQQSGPELVKPGASVKLSCKASGYTFTNYDINWVRQRPGQGLEWIGWIYPRDGSAKYNAKFKGKATLTVDTSSSTAYMELHSLTSEDSAVYFCARRPLYYGSTHWYFDVWGTGTTVTVSS
chain 2: not shown
notes: VL-linker-VH-CH1-CH2-CH3 (VLfH) plus a separate CL domain disulfide-bonded to CH1; also called 4H7 tcIgG; 4H7 tcIgG1; not shown: human IgG1 heavy chain constant region (CH1-hinge-CH2-CH3); monospecific tcIgG were made by c
A word on the kon: it is the second-order rate constant of association. For orientation: Kd means the equilibrium constant for the complex coming apart. As usually defined, the koff is a measure of how fast the partners let go of each other. For the molecule B1, the kon in experiment [1] came out at 332000 M⁻¹ s⁻¹. In [2], the Kd was found to be 1.29 nM, the koff was found to be 0.000427 s⁻¹ and the kon was determined as 332000 M⁻¹ s⁻¹.

B2: anti-KLB monoclonal antibody 12B8 (antibody, V domains shown)
VH: QIQLVQSGPELKKPGETAKISCKASGYAFSNYGMNWVKQAPGKDLKWMGWIDTDTGEATYTDDFKGRFVFSLETSASTAYLQINNLKNEDMATYFCAREEYGLFGFPYWGHGTLVTVSA
VL: DIQMTQSSSSFSVSLGDRVTITCKASEDIYNRLAWYQQKPGSAPRLLISAATSLETGVPSRFSGSGSGKDYTLSITSLQTEDVATYYCQQYWSNPLTFGAGTKLELK
notes: Mouse hybridoma antibody; tested as hybridoma supernatant, or recombinantly as mouse IgG2a or human IgG1, depending on the assay; also called clone 12B8; parental antibody 12B8
For B2, the binding result in [3] is “binds”; in the experiment with Rat KLB [4], “no binding (tested: 2 µg/ml (not on the sheet))”.

B3: bispecific anti-KLB antibody 4H7/28B7 (IgG format) (bispecific antibody, V domains shown)
VH 1: QVQLQQSGPELVKPGASVKLSCKASGYTFTNYDINWVRQRPGQGLEWIGWIYPRDGSAKYNAKFKGKATLTVDTSSSTAYMELHSLTSEDSAVYFCARRPLYYGSTHWYFDVWGTGTTVTVSS
VL 1: DIVLTQSPASLAVSLGQRATISCKASQSVDYDGDSYMNWYQQKPGQPPKLLIYAASNLKSGIPARFSGSGSGTDFTLNIHPVEEEDAATYYCQQSNEDPRTFGGGTRLEIK
VH 2: EVQLQQSGPELVQPGTSVKISCEASGYTFTDYYINWVKQSRGKSLEWIGDINPNNGDTTYNQKFKAKATLTVDRSSNTAYMELRSLTSEDSVVYYCARRFYSSPFDSWGQGTTLTVSS
VL 2: DIVMTQSPSSLAVSVGEKVTLSCKSGQSLLYSRNQKNYLAWYQQKPGQSPKLLISWASTRESGVPDRFTGSGSGTDFTLTISSVKTEDLAVYHCQQYYSYPYTFGGGTRLEIK
On to B3, for which the “EC50 (nM), luciferase-based reporter assay” value in experiment [5] is 1.21 nM.

B4: anti-KLB monoclonal antibody 28B7 (antibody, IgG1, V domains shown)
VH: EVQLQQSGPELVQPGTSVKISCEASGYTFTDYYINWVKQSRGKSLEWIGDINPNNGDTTYNQKFKAKATLTVDRSSNTAYMELRSLTSEDSVVYYCARRFYSSPFDSWGQGTTLTVSS
VL: DIVMTQSPSSLAVSVGEKVTLSCKSGQSLLYSRNQKNYLAWYQQKPGQSPKLLISWASTRESGVPDRFTGSGSGTDFTLTISSVKTEDLAVYHCQQYYSYPYTFGGGTRLEIK
notes: also called clone 28B7; 28B7 IgG
Take B4: in experiment [1], the kon turned out to be 104000 M⁻¹ s⁻¹. Moreover, the binding result with Rat KLB [6] is recorded as “no binding (tested: not given)”. Further, in experiment [2], the Kd was determined as 2.65 nM and the koff stood at 0.000276 s⁻¹. In [7], the kon worked out at 104000 M⁻¹ s⁻¹.

B5: anti-KLB monoclonal antibody 4H7 (antibody, IgG1, V domains shown)
VH: QVQLQQSGPELVKPGASVKLSCKASGYTFTNYDINWVRQRPGQGLEWIGWIYPRDGSAKYNAKFKGKATLTVDTSSSTAYMELHSLTSEDSAVYFCARRPLYYGSTHWYFDVWGTGTTVTVSS
VL: DIVLTQSPASLAVSLGQRATISCKASQSVDYDGDSYMNWYQQKPGQPPKLLIYAASNLKSGIPARFSGSGSGTDFTLNIHPVEEEDAATYYCQQSNEDPRTFGGGTRLEIK
notes: hybridoma mouse IgG in the first screen; also called clone 4H7; 4H7 IgG
B5: the kon in [1] is 571000 M⁻¹ s⁻¹. Moreover, the binding result in the experiment with Rat KLB [6] was “no binding (tested: not given)”. Also, in experiment [2], the Kd came to 0.78 nM, the dissociation rate constant (koff) was determined as 0.000444 s⁻¹ and the kon was found to be 571000 M⁻¹ s⁻¹.

B6: anti-KLB monoclonal antibody 23B3 (antibody, V domains shown)
VH: EVQLQESGPGLVKPSQSLSLTCSVTGYSITSGYYWNWIRQFPGNKLEWMGYIRYDGNSNYNPFLKNRVSITRDTSKNQFFLKLNSVTTEDTATYYCTRKGAYYSSFDALDYWGQGTSVTVSS
VL: DIVMTQSPSSMYASLGERVTISCKASQDIRSYLSWFQQKPGKSPKTLIYRANRLVDGVPSRFSGSGSGQDYSLTITSLEFGDVGLYYCLQYDEFPLTFGAGTKLKIE
notes: also called clone 23B3
On to B6, for which the binding result in [8] is listed as “no binding”; in experiment [9], “binds”; with Rat KLB [4], “no binding (tested: 2 µg/ml (not on the sheet))”.

Consider B7, for which the binding result in experiment [9] is given as “binds”; in the experiment with Rat KLB [4], “no binding (tested: 2 µg/ml (not on the sheet))”.

B8: anti-KLB antibody clone 28B7 in tri-chain IgG format (antibody)
chain 1: DIVMTQSPSSLAVSVGEKVTLSCKSGQSLLYSRNQKNYLAWYQQKPGQSPKLLISWASTRESGVPDRFTGSGSGTDFTLTISSVKTEDLAVYHCQQYYSYPYTFGGGTRLEIKRGGGGSGGGGSGGGGSGGGGSEVQLQQSGPELVQPGTSVKISCEASGYTFTDYYINWVKQSRGKSLEWIGDINPNNGDTTYNQKFKAKATLTVDRSSNTAYMELRSLTSEDSVVYYCARRFYSSPFDSWGQGTTLTVSS
chain 2: not shown
notes: VL-linker-VH-CH1-CH2-CH3 (VLfH) plus a separate CL domain disulfide-bonded to CH1; also called 28B7 tcIgG; 28B7 tcIgG1; not shown: human IgG1 heavy chain constant region (CH1-hinge-CH2-CH3); monospecific tcIgG were made by c
Regarding B8, the kon in experiment [1] came out at 119000 M⁻¹ s⁻¹. The Kd in [10] turned out to be 2.05 nM. Besides, in experiment [2], the dissociation constant (Kd) was found to be 2.06 nM, the koff worked out at 0.000244 s⁻¹ and the kon turned out to be 117000 M⁻¹ s⁻¹.

The record behind these values is patent US20190040142A1 (Genentech, published 2019).
